Experimental data published in publication PMC3876286 (ACS chemical biology, 2013).

Test system: r(CUG)12
Experiment: SPR binding to r

B1: muscleblind-like 1 protein (protein, UniProt Q9NR56 1-388, looked up)
Muscleblind-like protein 1: MAVSVTPIRDTKWLTLEVCREFQRGTCSRPDTECKFAHPSKSCQVENGRVIACFDSLKGRCSRENCKYLHPPPHLKTQLEINGRNNLIQQKNMAMLAQQMQLANAMMPGAPLQPVPMFSVAPSLATNASAAAFNPYLGPVSPSLVPAEILPTAPMLVTGNPGVPVPAAAAAAAQKLMRTDRLEVCREYQRGNCNRGENDCRFAHPADSTMIDTNDNTVTVCMDYIKGRCSREKCKYFHPPAHLQAKIKAAQYQVNQAAAAQAAATAAAMTQSAVKSLKRPLEATFDLGIPQAVLPPLPKRPALEKTNGATAVFNTGIFQYQQALANMQLQQHTAFLPPVPMVHGATPATVSAATTSATSVPFAATATANQIPIISAEHLTSHKYVTQM
koff (1): 0.00203 s⁻¹ | kon (1): 3280 M⁻¹ s⁻¹ | Kd (read-out: Kobs (1)): 619 nM
